Source: patent US20180291335A1, “MODIFIED POLYNUCLEOTIDES FOR ALTERING CELL PHENOTYPE” (ModernaTX, Inc., priority 2012, published 2018)

Columns and labels:
[1] = tested on: HeLa cells; test: In vitro screening in HeLa cells, luciferase modified RNA; assay type: cell-based, human; design: key to Protein (Luc; HeLa): the protein production of HeLa is judged by “+,” “+1-” and “−”; the protein production of HeLa is judged by “+,” “+1-” and “−”; the protein production of HeLa is judged by “+,” “+1-” and “−”; conditions: for RLU: HeLa cells, 83 ng luciferase modified RNA, 18 to 22 hours
Protocol: The day before transfection, 20,000 HeLa cells (ATCC no. CCL-2; Manassas, Va.) were harvested by treatment with Trypsin-EDTA solution (LifeTechnologies, Grand Island, N.Y.) and seeded in a total volume of 100 ul EMEM medium (supplemented with 10% FCS and 1× Glutamax) per well in a 96-well cell culture plate (Corning, Manassas, Va.). The cells were grown at […] in 5% CO2 atmosphere overnight. […] Lipofectamine 2000 (LifeTechnologies, Grand Island, N.Y.) was used as transfection reagent and 0.2 ul were diluted in 10 ul final volume of OPTI-MEM. After 5 minutes of incubation at room temperature, both solutions were combined and incubated an additional 15 minute at room temperature. Then the 20 ul combined solution was added to the 100 ul cell culture medium containing the HeLa cells and incubated at room temperature.
After 18 to 22 hours of incubation cells expressing luciferase were lysed with 100 ul of Passive Lysis Buffer (Promega, Madison, Wis.) according to manufacturer instructions. Aliquots of the lysates were transferred to white opaque polystyrene 96-well plates (Corning, Manassas, Va.) and combined with 100 ul complete luciferase assay solution (Promega, Madison, Wis.). The lysate volumes were adjusted or diluted until no more than 2 mio relative light units (RLU) per well were detected for the strongest signal producing samples and the RLUs for each chemistry tested are shown in Table 19. The plate reader was a BioTek Synergy H1 (BioTek, Winooski, Vt.). The background signal of the plates without reagent was about 200 relative light units per well.

[2] = tested on: Rabbit Reticulocyte Lysate; test: In vitro screening in rabbit reticulocyte lysates, luciferase mRNA translation; assay type: biochemical; conditions: 250 ng luciferase mRNA, 60 minutes, 30° C.
Protocol: The diluted luciferase was added to 40 ul of freshly prepared Rabbit Reticulocyte Lysate and the in vitro translation reaction was done in a standard 1.5 mL polypropylene reaction tube (Thermo Fisher Scientific, Waltham, Mass.) at 30° C. in a dry heating block. The translation assay was done with the Rabbit Reticulocyte Lysate (nuclease-treated) kit (Promega, Madison, Wis.) according to the manufacturer's instructions. The reaction buffer was supplemented with a one-to-one blend of provided amino acid stock solutions devoid of either Leucine or Methionine resulting in a reaction mix containing sufficient amounts of both amino acids to allow effective in vitro translation.
After 60 minutes of incubation, the reaction was stopped by placing the reaction tubes on ice. Aliquots of the in vitro translation reaction containing luciferase modified RNA were transferred to white opaque polystyrene 96-well plates (Corning, Manassas, Va.) and combined with 100 ul complete luciferase assay solution (Promega, Madison, Wis.). The volumes of the in vitro translation reactions were adjusted or diluted until no more than 2 mio relative light units (RLUs) per well were detected for the strongest signal producing samples and the RLUs for each chemistry tested are shown in Table 20. The plate reader was a BioTek Synergy H1 (BioTek, Winooski, Vt.). The background signal of the plates without reagent was about 200 relative light units per well.

[3] = tested on: peripheral blood mononuclear cells (PBMC); test: In vitro screening in PBMC: G-CSF protein expression by ELISA; assay type: cell-based, human; conditions: Table 30, non-naturally occurring chemistries; G-CSF modified mRNA in PBMC; background about 110 pg/ml
Source text: (§1) The supernatant was harvested and stored frozen until analyzed by ELISA to determine the G-CSF protein expression, and the induction of the cytokines interferon-alpha (IFN-α) and tumor necrosis factor alpha (TNF-α).

[4] = tested on: interferon-alpha (IFN-α); test: In vitro screening in PBMC: interferon-alpha induction by ELISA; assay type: cell-based, human
Source text: as §1

[5] = tested on: HeLa cells; test: G-CSF modified mRNA transfected in HeLa cells, G-CSF ELISA; assay type: cell-based, human; design: key to Protein (G-CSF; HeLa): the protein production of HeLa is judged by “+,” “+1-” and “−”; the protein production of HeLa is judged by “+,” “+1-” and “−”; the protein production of HeLa is judged by “+,” “+1-” and “−”
Protocol: (§2) To assess the activity of all our different chemical modifications in the context of a second open reading frame, we replicated experiments previously conducted using luciferase mRNA, with human G-CSF mRNA. […] The mutant T7 polymerase was obtained commercially (Durascribe® T7 Transcription kit (Cat. No. DS010925) (Epicentre®, Madison, Wis.).
(§3) The modified RNA in Tables 27 and 28 were transfected in vitro in HeLa cells or added to rabbit reticulysates (250 ng of modified mRNA) as indicated. […] In Table 27, “NT” means not tested.

[6] = tested on: rabbit reticulysates; test: G-CSF modified mRNA in rabbit reticulysates, G-CSF ELISA; assay type: biochemical; conditions: 250 ng of modified mRNA
Protocol: as §2, §3

[7] = tested on: peripheral blood mononuclear cells (PBMC); test: In vitro PBMC study, percent modification: G-CSF expression by ELISA; assay type: cell-based, human; conditions: for G-CSF Expression: 22 hours after transfection; for Average G-CSF: PBMC, average of three donors
Protocol: 480 ng of G-CSF mRNA modified with 5-methylcytosine (5mC) and pseudouridine (pseudoU) or unmodified G-CSF mRNA was transfected with 0.4 uL of Lipofectamine 2000 into peripheral blood mononuclear cells (PBMC) from three normal blood donors (D1, D2, and D3). […] The supernatant was harvested and run by ELISA 22 hours after transfection to determine the protein expression. The expression of IFN-alpha and TNF-alpha may be a secondary effect from the transfection of the G-CSF mRNA.

[8] = tested on: IFN-alpha; test: In vitro PBMC study, percent modification: IFN-alpha expression by ELISA; assay type: cell-based, human; conditions: for Average IFN-a / G-CSF/IFN-alpha (PC ratio): PBMC; for Average IFN-a: average of three donors; for G-CSF/IFN-alpha (PC ratio): protein/cytokine ratio from averages
Protocol: (§4) The supernatant was harvested and run by ELISA 22 hours after transfection to determine the protein expression.

[9] = tested on: TNF-alpha; test: In vitro PBMC study, percent modification: TNF-alpha expression by ELISA; assay type: cell-based, human; conditions: for Average TNF-a / G-CSF/TNF-alpha (PC ratio): PBMC; for Average TNF-a: average of three donors; for G-CSF/TNF-alpha (PC ratio): protein/cytokine ratio from averages
Protocol: as §4

[10] = Table 30, non-naturally occurring chemistries, luciferase modified mRNA in HeLa, ** = second result, IVT with mutant T7 polymerase
[11] = Table 30, non-naturally occurring chemistries, IFN-alpha from G-CSF modified mRNA in PBMC, background about 70 pg/ml
[12] = Table 30, non-naturally occurring chemistries, G-CSF modified mRNA in HeLa
[13] = PBMC donor D1, 22 hours after transfection
[14] = PBMC donor D2, 22 hours after transfection
[15] = PBMC donor D3, 22 hours after transfection

Molecule: 2′-F-adenosine
- Protein (Luc; HeLa) [1, 10]: −**

Molecule: 5 (2 carbovinyl) uridine: Luciferase mRNA (SEQ ID NO: 409) modified with 5 (2 carbovinyl) uridine
- RLU [1]: 531 RLU
- RLU [2]: 225 RLU

Molecule: 5 (3-1E propenyl Amino) uridine: Luciferase mRNA (SEQ ID NO: 409) modified with 5 (3-1E propenyl Amino) uridine
- RLU [1]: 446 RLU
- RLU [2]: 211 RLU

Molecule: 5-Br-Uridine [Compound 5-Br-Uridine]
- Protein (G-CSF; PBMC) [3]: + (“+” means greater than 300 pg/ml G-CSF)
- Cytokines (G-CSF; PBMC) [4, 11]: + (“+” means greater than 100 pg/ml IFN-alpha)
- Protein (Luc; HeLa) [1, 10]: +
- Protein (G-CSF; HeLa) [5, 12]: +

Molecule: 5-methylcytidine (m5c): Luciferase mRNA (SEQ ID NO: 409) modified with 5-methylcytidine
- RLU [1]: 138,428 RLU
- RLU [2]: 152,989 RLU

Molecule: COC(=O)C=Cc1cn([C@@H]2O[C@H](CO)[C@@H](O)[C@H]2O)c(=O)[nH]c1=O [5-(2-carbomethoxyvinyl) Uridine]
- Cytokines (G-CSF; PBMC) [4, 11]: − (“−” means less than 100 pg/ml)
- Protein (Luc; HeLa) [1, 10]: −
- Protein (G-CSF; HeLa) [5, 12]: −

Molecule: Luciferase control: luciferase control mRNA (SEQ ID NO: 409) fully modified with 5-methylcytosine and N1-methylpseudouridine [reference compound]
- G-CSF protein (pg/ml) Rabbit reticulysates cells [6]: 0 pg/mL

Molecule: N4-acetylcytidine (ac4c): Luciferase mRNA (SEQ ID NO: 409) modified with N4-acetylcytidine
- RLU [1]: 235,412 RLU
- RLU [2]: 60,879 RLU

Molecule: N6-methyladenosine (m6a): Luciferase mRNA (SEQ ID NO: 409) modified with N6-methyladenosine
- RLU [1]: 534 RLU
- RLU [2]: 398 RLU

Molecule: N^6-methyladenosine (m^6A)
- Cytokines (G-CSF; PBMC) ([4]; summary grade, IFN-alpha, G-CSF mRNA in PBMC): ++++ (“++++” means greater than 1,000 pg/ml interferon-alpha (IFN-alpha))
- Protein (Luc; HeLa) ([1]; summary grade, luciferase mRNA in HeLa): −
- Protein (G-CSF; HeLa) ([5]; summary grade, G-CSF mRNA in HeLa): −

B1: 50% modification: G-CSF mRNA (SEQ ID NO: 408) partially modified with 5mC and pseudoU, 50% modification (nucleic acid)
chain: GGGAAAUAAGAGAGAAAAGAAGAGUAAGAAGAAAUAUAAGAGCCACCAUGGCCGGUCCCGCGACCCAAAGCCCCAUGAAACUUAUGGCCCUGCAGUUGCUGCUUUGGCACUCGGCCCUCUGGACAGUCCAAGAAGCGACUCCUCUCGGACCUGCCUCAUCGUUGCCGCAGUCAUUCCUUUUGAAGUGUCUGGAGCAGGUGCGAAAGAUUCAGGGCGAUGGAGCCGCACUCCAAGAGAAGCUCUGCGCGACAUACAAACUUUGCCAUCCCGAGGAGCUCGUACUGCUCGGGCACAGCUUGGGGAUUCCCUGGGCUCCUCUCUCGUCCUGUCCGUCGCAGGCUUUGCAGUUGGCAGGGUGCCUUUCCCAGCUCCACUCCGGUUUGUUCUUGUAUCAGGGACUGCUGCAAGCCCUUGAGGGAAUCUCGCCAGAAUUGGGCCCGACGCUGGACACGUUGCAGCUCGACGUGGCGGAUUUCGCAACAACCAUCUGGCAGCAGAUGGAGGAACUGGGGAUGGCACCCGCGCUGCAGCCCACGCAGGGGGCAAUGCCGGCCUUUGCGUCCGCGUUUCAGCGCAGGGCGGGUGGAGUCCUCGUAGCGAGCCACCUUCAAUCAUUUUUGGAAGUCUCGUACCGGGUGCUGAGACAUCUUGCGCAGCCGUGAAGCGCUGCCUUCUGCGGGGCUUGCCUUCUGGCCAUGCCCUUCUUCUCUCCCUUGCACCUGUACCUCUUGGUCUUUGAAUAAAGCCUGAGUAGGAAG
modifications: 50% 5mC/pseudoU modified; Description of Artificial Sequence: Synthetic Transcript Sequence
- G-CSF Expression ([7]; PBMC donor D1, 480 ng mRNA): 188.9 pg/mL
- G-CSF Expression ([7]; PBMC donor D2, 480 ng mRNA): 187.2 pg/mL
- G-CSF Expression ([7]; PBMC donor D3, 480 ng mRNA): 191.9 pg/mL
- Average G-CSF [7]: 189 pg/mL
- IFN-alpha Expression [8, 13]: 478.9 pg/mL
- IFN-alpha Expression [8, 14]: 261.1 pg/mL
- IFN-alpha Expression [8, 15]: 389.7 pg/mL
- Average IFN-a [8]: 376 pg/mL
- G-CSF/IFN-alpha (PC ratio) [8]: 0.5
- TNF-alpha Expression [9, 13]: 49.6 pg/mL
- TNF-alpha Expression [9, 14]: 24.1 pg/mL
- TNF-alpha Expression [9, 15]: 10.4 pg/mL
- Average TNF-a [9]: 28 pg/mL
- G-CSF/TNF-alpha (PC ratio) [9]: 6.8

B2: 25% modification: G-CSF mRNA (SEQ ID NO: 408) partially modified with 5mC and pseudoU, 25% modification (nucleic acid)
chain: B1 chain
modifications: 25% 5mC and pseudoU modification; Description of Artificial Sequence: Synthetic Transcript Sequence
- G-CSF Expression ([7]; PBMC donor D1, 480 ng mRNA): 139.3 pg/mL
- G-CSF Expression ([7]; PBMC donor D2, 480 ng mRNA): 126.9 pg/mL
- G-CSF Expression ([7]; PBMC donor D3, 480 ng mRNA): 102.0 pg/mL
- Average G-CSF [7]: 122 pg/mL
- IFN-alpha Expression [8, 13]: 564.3 pg/mL
- IFN-alpha Expression [8, 14]: 400.4 pg/mL
- IFN-alpha Expression [8, 15]: 670.7 pg/mL
- Average IFN-a [8]: 545 pg/mL
- G-CSF/IFN-alpha (PC ratio) [8]: 0.2
- TNF-alpha Expression [9, 13]: 85.6 pg/mL
- TNF-alpha Expression [9, 14]: 26.6 pg/mL
- TNF-alpha Expression [9, 15]: 19.8 pg/mL
- Average TNF-a [9]: 44 pg/mL
- G-CSF/TNF-alpha (PC ratio) [9]: 2.8

B3: 2′Fluoroguanine triphosphate/pseudouridine: G-CSF mRNA (SEQ ID NO: 408) fully modified with the named combination (nucleic acid)
chain: B1 chain
modifications: 2'-fluoroguanine/pseudouridine modified; Description of Artificial Sequence: Synthetic Transcript Sequence
- G-CSF protein (pg/ml) HeLa cells ([5]; HeLa cells, combination chemistries, ELISA): 1,136 pg/ml
